This assay concerns the target recombinant FVIII (Prospec Bio) (UniProt P00451). Put plainly: ELISA: vWF-Fc variant coated on the plate, recombinant FVIII at 0-4000 pM, detected with sheep anti-FVIII polyclonal antibody and HRP secondary antibody. On the technique in general: An ELISA detects its analyte on a solid surface through an enzyme-linked reagent.

The source of these data is US10654911.

UniProt P00451, sequence (P00451 other isoform, or with tags, fused parts or gaps limits assumed): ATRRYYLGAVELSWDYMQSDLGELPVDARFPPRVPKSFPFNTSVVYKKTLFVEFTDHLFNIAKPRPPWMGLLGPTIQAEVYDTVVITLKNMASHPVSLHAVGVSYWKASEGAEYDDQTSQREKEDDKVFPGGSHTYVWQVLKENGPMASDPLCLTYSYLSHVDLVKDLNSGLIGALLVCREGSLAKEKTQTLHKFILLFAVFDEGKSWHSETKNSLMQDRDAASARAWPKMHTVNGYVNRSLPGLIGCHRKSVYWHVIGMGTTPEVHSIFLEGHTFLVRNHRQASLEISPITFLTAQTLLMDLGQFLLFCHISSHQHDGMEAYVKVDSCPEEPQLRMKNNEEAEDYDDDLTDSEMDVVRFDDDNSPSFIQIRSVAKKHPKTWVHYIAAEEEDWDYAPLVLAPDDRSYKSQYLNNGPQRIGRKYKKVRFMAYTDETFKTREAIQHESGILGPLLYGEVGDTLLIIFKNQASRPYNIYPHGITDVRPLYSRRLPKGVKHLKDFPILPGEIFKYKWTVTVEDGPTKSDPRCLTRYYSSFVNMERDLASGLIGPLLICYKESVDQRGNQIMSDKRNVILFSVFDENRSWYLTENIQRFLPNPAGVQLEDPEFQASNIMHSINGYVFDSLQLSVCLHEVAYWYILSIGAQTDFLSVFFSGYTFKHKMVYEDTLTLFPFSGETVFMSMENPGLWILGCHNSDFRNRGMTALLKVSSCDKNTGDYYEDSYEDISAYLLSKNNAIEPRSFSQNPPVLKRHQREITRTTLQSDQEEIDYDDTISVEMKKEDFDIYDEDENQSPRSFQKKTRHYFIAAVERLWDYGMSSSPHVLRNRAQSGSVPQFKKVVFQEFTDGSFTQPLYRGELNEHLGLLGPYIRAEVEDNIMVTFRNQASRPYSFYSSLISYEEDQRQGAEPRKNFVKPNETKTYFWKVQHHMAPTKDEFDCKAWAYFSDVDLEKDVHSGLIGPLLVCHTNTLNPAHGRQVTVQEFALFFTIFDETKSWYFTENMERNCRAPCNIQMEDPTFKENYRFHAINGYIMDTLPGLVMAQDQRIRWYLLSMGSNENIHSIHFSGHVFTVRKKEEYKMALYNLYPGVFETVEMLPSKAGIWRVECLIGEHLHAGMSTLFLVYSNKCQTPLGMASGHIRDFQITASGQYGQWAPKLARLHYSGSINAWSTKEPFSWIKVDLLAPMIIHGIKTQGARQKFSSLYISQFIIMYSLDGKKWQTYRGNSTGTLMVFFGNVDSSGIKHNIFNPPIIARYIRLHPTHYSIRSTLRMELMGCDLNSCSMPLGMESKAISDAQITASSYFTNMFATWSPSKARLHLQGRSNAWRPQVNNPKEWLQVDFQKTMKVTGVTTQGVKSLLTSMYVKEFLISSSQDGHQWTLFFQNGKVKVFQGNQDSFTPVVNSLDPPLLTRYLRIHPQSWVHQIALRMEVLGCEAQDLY

Take Pro-D′D3-Fc (Fc fusion): the dissociation constant (Kd) came out at 0.5 nM.

What is called Kd is the equilibrium constant for the complex coming apart.
